# T1: 4H341-AA
# T1 chain: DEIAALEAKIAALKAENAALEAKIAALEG
# T2: 4H3414-AA
# T2 chain: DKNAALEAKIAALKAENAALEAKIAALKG
# T3: 4H3449-AA
# T3 chain: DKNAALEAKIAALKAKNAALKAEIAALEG
# T4: 4H3595-AA
# T4 chain: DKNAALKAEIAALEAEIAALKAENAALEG
# T5: 4H3619-AA
# T5 chain: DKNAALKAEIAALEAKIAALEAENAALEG
# T6: 4H3629-AA
# T6 chain: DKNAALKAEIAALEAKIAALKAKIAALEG
# T7: 4H3777-AA
# T7 chain: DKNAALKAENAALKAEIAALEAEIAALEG
# T8: 4H3782-AA
# T8 chain: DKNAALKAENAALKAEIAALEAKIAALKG
# T9: 4H380-AA
# T9 chain: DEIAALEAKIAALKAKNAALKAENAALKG
# T10: 4H3915-AA
# T10 chain: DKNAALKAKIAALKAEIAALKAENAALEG
# T11: 4H3939-AA
# T11 chain: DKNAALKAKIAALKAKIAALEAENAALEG
# T12: 4H3969-AA
# T12 chain: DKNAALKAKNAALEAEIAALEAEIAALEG
# T13: 4H3974-AA
# T13 chain: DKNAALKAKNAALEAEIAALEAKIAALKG
# T14: 4H432-AA
# T14 chain: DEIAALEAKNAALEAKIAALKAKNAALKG
# T15: 4H446-AA
# T15 chain: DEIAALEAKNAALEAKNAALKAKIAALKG
# T16: 4H464-AA
# T16 chain: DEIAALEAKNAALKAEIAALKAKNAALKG
# T17: 4H483-AA
# T17 chain: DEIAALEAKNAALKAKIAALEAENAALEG
# T18: 4H63-AA
# T18 chain: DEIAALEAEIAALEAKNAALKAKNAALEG
# T19: 4H3855-bA
# T19 chain: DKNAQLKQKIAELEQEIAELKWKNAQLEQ
# T20: 4H4001-bA
# T20 chain: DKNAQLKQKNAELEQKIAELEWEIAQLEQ
# T21: 4H454-bA
# T21 chain: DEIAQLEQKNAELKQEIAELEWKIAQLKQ
# T22: 4H568-bA
# T22 chain: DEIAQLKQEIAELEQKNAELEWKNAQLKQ
# T23: 4H607-bA
# T23 chain: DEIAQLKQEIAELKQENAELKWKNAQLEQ
# T24: 4H687-bA
# T24 chain: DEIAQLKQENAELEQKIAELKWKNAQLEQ
# T25: 4H717-bA
# T25 chain: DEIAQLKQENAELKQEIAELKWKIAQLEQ
# T26: 4H72-bA
# T26 chain: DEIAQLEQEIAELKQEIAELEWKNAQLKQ
# T27: 4H754-bA
# T27 chain: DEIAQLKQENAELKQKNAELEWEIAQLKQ
# T28: 4H797-bA
# T28 chain: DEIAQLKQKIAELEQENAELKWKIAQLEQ
# T29: 4H883-bA
# T29 chain: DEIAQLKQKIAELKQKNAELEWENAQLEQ
# T30: 4H908-bA
# T30 chain: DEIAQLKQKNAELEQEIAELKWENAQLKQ
# T31: 4H918-bA
# T31 chain: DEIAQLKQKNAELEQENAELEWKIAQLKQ
# T32: 4H953-bA
# T32 chain: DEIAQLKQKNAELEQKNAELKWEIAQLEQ
# T33: 4H967-bA
# T33 chain: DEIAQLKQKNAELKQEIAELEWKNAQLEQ
# T34: 4H3015-AA
# T34 chain: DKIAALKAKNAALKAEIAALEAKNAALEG
# T35: 4H3073-AA
# T35 chain: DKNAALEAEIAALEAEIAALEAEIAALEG
# T36: 4H3438-AA
# T36 chain: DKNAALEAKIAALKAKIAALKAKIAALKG
# T37: 4H347-AA
# T37 chain: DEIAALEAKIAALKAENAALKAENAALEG
# T38: 4H406-AA
# T38 chain: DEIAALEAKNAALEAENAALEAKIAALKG
# T39: 4H452-AA
# T39 chain: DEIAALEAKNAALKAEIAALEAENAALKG
# T40: 4H56-AA
# T40 chain: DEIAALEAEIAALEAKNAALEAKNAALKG
# T41: 4H_APH
# T41 chain: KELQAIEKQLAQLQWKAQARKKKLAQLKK
# T42: 4H_BCR
# T42 chain: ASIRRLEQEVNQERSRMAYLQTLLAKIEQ
# Legend:
# 4H341-AA = molecular target: T1, 4H341-AA; assay: two-hybrid library CCmax;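 note: natural log of median RNA to DNA barcode read ratio; higher means stronger binding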
# 4H3414-AA = molecular target: T2, 4H3414-AA; assay: two-hybrid library CCmax; conditions: mean of both orientations;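 note: natural log of median RNA to DNA barcode read ratio; higher means stronger binding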
# 4H3449-AA = molecular target: T3, 4H3449-AA; assay: two-hybrid library CCmax; conditions: mean of both orientations;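 note: natural log of median RNA to DNA barcode read ratio; higher means stronger binding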
# 4H3595-AA = molecular target: T4, 4H3595-AA; assay: two-hybrid library CCmax; conditions: mean of both orientations;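 note: natural log of median RNA to DNA barcode read ratio; higher means stronger binding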
# 4H3619-AA = molecular target: T5, 4H3619-AA; assay: two-hybrid library CCmax; conditions: mean of both orientations;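 note: natural log of median RNA to DNA barcode read ratio; higher means stronger binding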
# 4H3629-AA = molecular target: T6, 4H3629-AA; assay: two-hybrid library CCmax; conditions: mean of both orientations;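 note: natural log of median RNA to DNA barcode read ratio; higher means stronger binding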
# 4H3777-AA = molecular target: T7, 4H3777-AA; assay: two-hybrid library CCmax; conditions: mean of both orientations
# 4H3782-AA = molecular target: T8, 4H3782-AA; assay: two-hybrid library CCmax; conditions: mean of both orientations
# 4H380-AA = molecular target: T9, 4H380-AA; assay: two-hybrid library CCmax; conditions: mean of both orientations
# 4H3915-AA = molecular target: T10, 4H3915-AA; assay: two-hybrid library CCmax; conditions: mean of both orientations
# 4H3939-AA = molecular target: T11, 4H3939-AA; assay: two-hybrid library CCmax; conditions: mean of both orientations
# 4H3969-AA = molecular target: T12, 4H3969-AA; assay: two-hybrid library CCmax
# 4H3974-AA = molecular target: T13, 4H3974-AA; assay: two-hybrid library CCmax; conditions: mean of both orientations
# 4H432-AA = molecular target: T14, 4H432-AA; assay: two-hybrid library CCmax; conditions: mean of both orientations
# 4H446-AA = molecular target: T15, 4H446-AA; assay: two-hybrid library CCmax; conditions: mean of both orientations
# 4H464-AA = molecular target: T16, 4H464-AA; assay: two-hybrid library CCmax; conditions: mean of both orientations
# 4H483-AA = molecular target: T17, 4H483-AA; assay: two-hybrid library CCmax; conditions: mean of both orientations
# 4H63-AA = molecular target: T18, 4H63-AA; assay: two-hybrid library CCmax; conditions: mean of both orientations
# 4H3855-bA = molecular target: T19, 4H3855-bA; assay: two-hybrid library CCNG1
# 4H4001-bA = molecular target: T20, 4H4001-bA; assay: two-hybrid library CCNG1
# 4H454-bA = molecular target: T21, 4H454-bA; assay: two-hybrid library CCNG1
# 4H568-bA = molecular target: T22, 4H568-bA; assay: two-hybrid library CCNG1
# 4H607-bA = molecular target: T23, 4H607-bA; assay: two-hybrid library CCNG1
# 4H687-bA = molecular target: T24, 4H687-bA; assay: two-hybrid library CCNG1
# 4H717-bA = molecular target: T25, 4H717-bA; assay: two-hybrid library CCNG1
# 4H72-bA = molecular target: T26, 4H72-bA; assay: two-hybrid library CCNG1
# 4H754-bA = molecular target: T27, 4H754-bA; assay: two-hybrid library CCNG1; conditions: mean of both orientations
# 4H797-bA = molecular target: T28, 4H797-bA; assay: two-hybrid library CCNG1
# 4H883-bA = molecular target: T29, 4H883-bA; assay: two-hybrid library CCNG1
# 4H908-bA = molecular target: T30, 4H908-bA; assay: two-hybrid library CCNG1
# 4H918-bA = molecular target: T31, 4H918-bA; assay: two-hybrid library CCNG1
# 4H953-bA = molecular target: T32, 4H953-bA; assay: two-hybrid library CCNG1
# 4H967-bA = molecular target: T33, 4H967-bA; assay: two-hybrid library CCNG1
# 4H3015-AA = molecular target: T34, 4H3015-AA; assay: two-hybrid library CCmax
# 4H3073-AA = molecular target: T35, 4H3073-AA; assay: two-hybrid library CCmax; conditions: mean of both orientations
# 4H3438-AA = molecular target: T36, 4H3438-AA; assay: two-hybrid library CCmax; conditions: mean of both orientations
# 4H347-AA = molecular target: T37, 4H347-AA; assay: two-hybrid library CCmax; conditions: mean of both orientations
# 4H406-AA = molecular target: T38, 4H406-AA; assay: two-hybrid library CCmax; conditions: mean of both orientations
# 4H452-AA = molecular target: T39, 4H452-AA; assay: two-hybrid library CCmax; conditions: mean of both orientations
# 4H56-AA = molecular target: T40, 4H56-AA; assay: two-hybrid library CCmax; conditions: mean of both orientations
# 4H_APH = molecular target: T41, 4H_APH; assay: two-hybrid library CCmax; conditions: mean of both orientations
# 4H_BCR = molecular target: T42, 4H_BCR; assay: two-hybrid library CCmax; conditions: mean of both orientations
# 4H_GCN4 = assay: two-hybrid library CCmax
# Sequence of 4H_GCN4 (chain, as listed by the source): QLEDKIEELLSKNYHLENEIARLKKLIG
# GCN2_T = assay: two-hybrid library CCmax; conditions: mean of both orientations
binder,measurement,setting,value
DEIAALEAKIAALKAENAALEAKIAALEG [4H341-AA],interaction score,4H341-AA,1.84
same,interaction score,4H3414-AA,0.22
same,interaction score,4H3449-AA,0.461
same,interaction score,4H3595-AA,-1.29
same,interaction score,4H3619-AA,-1.22
same,interaction score,4H3629-AA,2.2
same,interaction score,4H3777-AA,-1.17
same,interaction score,4H3782-AA,0.558
same,interaction score,4H380-AA,-1.07
same,interaction score,4H3915-AA,-1.31
same,interaction score,4H3939-AA,-1.29
same,interaction score,4H3969-AA,0.0125
same,interaction score,4H3974-AA,0.589
same,interaction score,4H432-AA,-1.21
same,interaction score,4H446-AA,0.795
same,interaction score,4H464-AA,0.352
same,interaction score,4H483-AA,0.738
same,interaction score,4H63-AA,1.74
DKNAQLKQKIAELEQEIAELKWKNAQLEQ [4H3855-bA],interaction score,4H3855-bA,0.372
same,interaction score,4H4001-bA,0.153
same,interaction score,4H454-bA,-0.709
same,interaction score,4H568-bA,-0.231
same,interaction score,4H607-bA,-0.96
same,interaction score,4H687-bA,-0.551
same,interaction score,4H717-bA,-0.336
same,interaction score,4H72-bA,0.932
same,interaction score,4H754-bA,-1.21
same,interaction score,4H797-bA,-0.875
same,interaction score,4H883-bA,-1.04
same,interaction score,4H908-bA,-0.51
same,interaction score,4H918-bA,-1.43
same,interaction score,4H953-bA,-1.69
same,interaction score,4H967-bA,-0.636
DKIAALKAKNAALKAEIAALEAKNAALEG [4H3015-AA],interaction score,4H3015-AA,-1.16
same,interaction score,4H3073-AA,0.065
same,interaction score,4H3438-AA,-1.63
same,interaction score,4H347-AA,-1.96
same,interaction score,4H406-AA,-0.891
same,interaction score,4H452-AA,-1.36
same,interaction score,4H56-AA,-1.59
same,interaction score,4H_APH,-2.92
same,interaction score,4H_BCR,-1.81
same,interaction score,4H_GCN4,-1.28
same,interaction score,GCN2_T,-1.44

# Source: article PMC10397247
